{"source": "patent US7255985B2", "about": "“Fluorine NMR spectroscopy for biochemical screening” (Pfizer Italia S.r.l., priority 2003, dated 2007)", "assay_type_in_all_cases": "biochemical", "key": {"[1]": {"biological_target": "T1, protein Ser/Thr kinase AKT1 (Homo sapiens, UniProt P31749)", "T1 construct": "baculovirus coding for the full length protein fused to GST at the N-terminus; GST (N, cleaved yes); made in house; host or cells: Sf21 insect cells (baculovirus), treated with okadaic acid before harvest", "T1 sequence (P31749 whole entry, the tested form may be a part)": "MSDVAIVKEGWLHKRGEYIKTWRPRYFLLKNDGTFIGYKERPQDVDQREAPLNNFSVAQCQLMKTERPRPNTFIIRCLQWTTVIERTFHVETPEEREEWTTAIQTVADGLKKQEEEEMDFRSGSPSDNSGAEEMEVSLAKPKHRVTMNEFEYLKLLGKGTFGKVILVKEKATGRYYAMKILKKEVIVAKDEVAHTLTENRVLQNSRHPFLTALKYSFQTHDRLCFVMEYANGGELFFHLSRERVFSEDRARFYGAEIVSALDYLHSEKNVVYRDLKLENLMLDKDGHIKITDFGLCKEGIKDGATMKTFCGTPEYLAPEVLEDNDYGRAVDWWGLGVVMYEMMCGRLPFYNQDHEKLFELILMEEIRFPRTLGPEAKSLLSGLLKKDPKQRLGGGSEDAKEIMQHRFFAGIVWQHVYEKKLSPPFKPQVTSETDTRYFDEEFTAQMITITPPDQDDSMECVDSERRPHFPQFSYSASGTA", "assay": "19F NMR assay of phosphorylation of CF3-labeled peptide by AKT1", "description": "D2O was added to the solutions (8% final concentration) for the lock signal."}, "[2]": {"biological_target": "T2, trypsin from bovine pancreas (Bos taurus, UniProt P00760)", "T2 construct": "purchased Roche Molecular Biochemical 1418025; host or cells: bovine pancreas", "T2 sequence (P00760 24-246)": "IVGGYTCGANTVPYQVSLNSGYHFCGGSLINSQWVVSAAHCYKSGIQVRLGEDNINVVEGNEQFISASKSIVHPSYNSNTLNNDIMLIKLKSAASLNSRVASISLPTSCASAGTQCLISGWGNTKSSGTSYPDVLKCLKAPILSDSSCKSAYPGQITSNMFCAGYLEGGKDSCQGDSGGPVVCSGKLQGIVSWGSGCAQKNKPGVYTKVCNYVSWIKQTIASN", "assay": "19F NMR assay of cleavage of CF3-labeled peptide by trypsin", "conditions": "15 nM trypsin", "description": "FIG. 4 provides the screening of proteases, where the substrate is the peptide of Seq ID NO:2 and the protein is trypsin from bovine pancreas. ^19F NMR spectra for the peptide in the absence (a) and in the presence (b–e) of trypsin. The reaction was run at 22° C. and quenched after 30 minutes with the addition of 0.5 mM phenylmethylsulfonyl fluoride (PMSF). The reaction was performed in the absence of compound (b), in the presence of a five compound mixture (2-amino-6 methylquinazolin-4 ol, ethyl 2-quinoxalinecarboxylate, 5-methyl-benzimidazole, methyl isoquinoline-3-carboxylate, and leupeptin) (c), in the presence of the same mixture without leupeptin (d), and in the presence of only leupeptin (e). The protein, peptide, and compound concentrations were 15 nM, 30 μM, and 20 μM, respectively. A total of 128 scans with 2.8 s repetition time were recorded for each spectrum (6 minute measuring time). Pep and C-pep are the substrate and the product respectively.\nThe method of the present invention can also be applied to many different types and subtypes of enzymes (e.g. proteases, phosphatases, ligases, etc.). […]\nAll NMR spectra were recorded at 20° C. with a 600 NMR spectrometer operating at a ^19F Larmor frequency of 564 MHZ. […]"}, "[3]": {"biological_target": "T3, p21-activated kinase PAK4 (Homo sapiens, UniProt O96013)", "T3 construct": "GST (cleaved yes); made in house; host or cells: Escherichia coli", "T3 sequence (O96013 whole entry)": "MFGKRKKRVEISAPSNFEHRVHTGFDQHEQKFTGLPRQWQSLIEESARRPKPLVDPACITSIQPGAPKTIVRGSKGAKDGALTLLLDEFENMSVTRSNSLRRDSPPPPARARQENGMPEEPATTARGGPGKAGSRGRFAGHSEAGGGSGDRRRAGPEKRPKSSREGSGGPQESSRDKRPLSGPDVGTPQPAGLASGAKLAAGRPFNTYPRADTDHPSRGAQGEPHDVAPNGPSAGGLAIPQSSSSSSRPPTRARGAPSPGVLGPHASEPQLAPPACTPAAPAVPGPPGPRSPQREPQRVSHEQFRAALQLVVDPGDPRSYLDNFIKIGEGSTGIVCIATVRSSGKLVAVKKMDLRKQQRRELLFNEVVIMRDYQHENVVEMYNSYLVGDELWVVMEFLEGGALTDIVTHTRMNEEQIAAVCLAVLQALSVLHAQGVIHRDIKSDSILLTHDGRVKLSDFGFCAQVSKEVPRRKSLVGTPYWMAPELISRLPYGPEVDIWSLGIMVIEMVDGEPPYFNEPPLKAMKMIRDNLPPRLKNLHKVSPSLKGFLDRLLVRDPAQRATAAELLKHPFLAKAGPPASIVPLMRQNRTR", "assay": "19F NMR assay of CF3-labeled peptide with PAK4 (protein function)", "description": "FIG. 5 provides the 19F spectra of the peptide of Seq ID NO:2 in the presence of three different proteins, 25 nM AKT1 (FIG. 5A top), 15 nM trypsin (FIG. 5B middle) and 150 nM PAK4 (FIG. 5C bottom). […] The chemical shift of the cleaved peptide is quite different when compared to the chemical shift of the phosphorylated peptide.\nIn another embodiment of the present invention, three different proteins, AKT1, Trypsin, and p-21 activated protein (PAK4) were incubated with the CF3-labeled peptide of Seq ID NO:2. […] A higher concentration of the protein with unknown function and a longer incubation period may be required because the substrate may not be optimal for the protein with unknown function. The speed of the enzymatic reaction of PAK4 is only 1/22 of the speed of AKT1, therefore, the period of time for the reaction in the presence of PAK4 was longer than the period of time for the reaction in the presence of AKT1. The method of the present invention is also applicable to activated enzymes.\nThe serine/threonine p21-activated kinase PAK4 was expressed as a GST fusion protein in Escherichia coli and purified to homogeneity after removal of the GST tag.\nAll NMR spectra were recorded at 20° C. with a 600 NMR spectrometer operating at a ^19F Larmor frequency of 564 MHZ. A 5 mm probe tunable to either 19F or ^1H frequency was used. […]"}}, "note": "Non-standard residues stand in square brackets, D forms with d. No end group written: not given here. *: point of attachment. Phe(3-CF3) = N[C@@H](Cc1cccc(C(F)(F)F)c1)C(=O)O; Tfa = O=C(C(F)(F)F)*", "data": [{"compound": "Nc1ncnc2c1ncn2[C@@H]1O[C@H](COP(=O)(O)OP(=O)(O)OP(=O)(O)O)[C@@H](O)[C@H]1O", "note": "[ATP]", "values": [{"measurement": "Km", "setting": "[1]; 40 nM protein, 30 μM substrate peptide, 22° C., quenched after 60 minutes, read-out: KM / binding constant for ATP", "result": 89, "unit": "µM"}]}, {"compound": "O=S(=O)(NCCNC/C=C/c1ccc(Br)cc1)c1cccc2cnccc12", "note": "[H89]", "values": [{"measurement": "inhibition of peptide phosphorylation", "setting": "[1]; reaction in the presence of only H89 (deconvolution of five molecule mixture)", "result": "inhibitory effect over peptide phosphorylation"}]}, {"compound": "CC(=O)N[C@@H](CC(C)C)C(=O)N[C@@H](CC(C)C)C(=O)N[C@H](C=O)CCCNC(=N)N", "note": "[leupeptin, reference compound]", "values": [{"measurement": "inhibition of peptide cleavage by trypsin (cleaved peptide signal)", "setting": "[2]; 20 μM compound, 30 μM peptide, 22° C., quenched after 30 minutes", "result": "missing cleaved peptide signal"}]}, {"compound": "CN[C@@H]1C[C@H]2O[C@@](C)([C@@H]1OC)n1c3ccccc3c3c4c(c5c6ccccc6n2c5c31)C(=O)NC4", "note": "[staurosporine]", "values": [{"measurement": "formation of phosphorylated peptide in the presence of inhibitor", "setting": "[1]; 10 μM Staurosporine, 50 nM protein, 30 μM peptide, 131 μM ATP", "result": "did not result in any formation of phosphorylated peptide"}]}, {"compound": "ARKRERAF(3-CF3)SFGHHA (ARKRERA[Phe(3-CF3)]SFGHHA) [peptide of Seq ID NO:2, CF3-labeled peptide substrate for trypsin, AKT1 and PAK4]", "values": [{"measurement": "19F signal after reaction with PAK4", "setting": "[3]; 150 nM PAK4", "result": "appearance of a signal at the chemical shift of the phosphorylated peptide"}, {"measurement": "speed of the enzymatic reaction of PAK4 relative to AKT1", "setting": "[3]; ratio to speed of AKT1", "result": "1/22"}, {"measurement": "substrate quality for trypsin", "setting": "[2]", "result": "good substrate"}, {"measurement": "substrate quality for AKT1", "setting": "[1]; 25 nM AKT1", "result": "good substrate"}]}, {"compound": "CF3—CO-ARKRERAYSFGHHA (Tfa-ARKRERAYSFGHHA) [CF3-labeled peptide of Seq ID NO:1, AKTide, 14 aminoacid peptide labeled with CF3 by N-terminal capping with trifluoroacetic anhydride]", "values": [{"measurement": "time after which the enzymatic reaction is complete", "setting": "[1]; 50 nM protein, 30 μM peptide, 131 μM ATP, no inhibitor", "result": 149, "unit": "min"}]}]}
